In IntAct's records for PubMed 31515488:

B1: Epidermal growth factor receptor substrate 15-like 1 (Homo sapiens), Q9UBC2 (parent)
chain: MAAPLIPLSQQIPTGNSLYESYYKQVDPAYTGRVGASEAALFLKKSGLSDIILGKIWDLADPEGKGFLDKQGFYVALRLVACAQSGHEVTLSNLNLSMPPPKFHDTSSPLMVTPPSAEAHWAVRVEEKAKFDGIFESLLPINGLLSGDKVKPVLMNSKLPLDVLGRVWDLSDIDKDGHLDRDEFAVAMHLVYRALEKEPVPSALPPSLIPPSKRKKTVFPGAVPVLPASPPPKDSLRSTPSHGSVSSLNSTGSLSPKHSLKQTQPTVNWVVPVADKMRFDEIFLKTDLDLDGYVSGQEVKEIFMHSGLTQNLLAHIWALADTRQTGKLSKDQFALAMYFIQQKVSKGIDPPQVLSPDMVPPSERGTPGPDSSGSLGSGEFTGVKELDDISQEIAQLQREKYSLEQDIREKEEAIRQKTSEVQELQNDLDRETSSLQELEAQKQDAQDRLDEMDQQKAKLRDMLSDVRQKCQDETQMISSLKTQIQSQESDLKSQEDDLNRAKSELNRLQQEETQLEQSIQAGRVQLETIIKSLKSTQDEINQARSKLSQLHESRQEAHRSLEQYDQVLDGAHGASLTDLANLSEGVSLAERGSFGAMDDPFKNKALLFSNNTQELHPDPFQTEDPFKSDPFKGADPFKGDPFQNDPFAEQQTTSTDPFGGDPFKESDPFRGSATDDFFKKQTKNDPFTSDPFTKNPSLPSKLDPFESSDPFSSSSVSSKGSDPFGTLDPFGSGSFNSAEGFADFSQMSKPPPSGPFTSSLGGAGFSDDPFKSKQDTPALPPKKPAPPRPKPPSGKSTPVSQLGSADFPEAPDPFQPLGADSGDPFQSKKGFGDPFSGKDPFVPSSAAKPSKASASGFADFTSVS
partner: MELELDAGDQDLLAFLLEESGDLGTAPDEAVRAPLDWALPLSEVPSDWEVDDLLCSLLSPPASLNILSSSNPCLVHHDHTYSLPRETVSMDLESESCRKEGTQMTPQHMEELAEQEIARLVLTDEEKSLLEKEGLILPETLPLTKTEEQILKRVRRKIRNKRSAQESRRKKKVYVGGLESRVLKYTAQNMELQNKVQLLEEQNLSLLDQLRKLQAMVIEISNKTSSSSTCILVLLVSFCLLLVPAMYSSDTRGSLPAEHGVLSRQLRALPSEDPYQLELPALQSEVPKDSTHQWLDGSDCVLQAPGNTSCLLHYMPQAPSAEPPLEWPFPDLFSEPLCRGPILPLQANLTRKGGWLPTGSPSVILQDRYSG
B2: PDZ and LIM domain protein 1 (Homo sapiens), O00151 (parent)
chain: MTTQQIDLQGPGPWGFRLVGGKDFEQPLAISRVTPGSKAALANLCIGDVITAIDGENTSNMTHLEAQNRIKGCTDNLTLTVARSEHKVWSPLVTEEGKRHPYKMNLASEPQEVLHIGSAHNRSAMPFTASPASSTTARVITNQYNNPAGLYSSENISNFNNALESKTAASGVEANSRPLDHAQPPSSLVIDKESEVYKMLQEKQELNEPPKQSTSFLVLQEILESEEKGDPNKPSGFRSVKAPVTKVAASIGNAQKLPMCDKCGTGIVGVFVKLRDRHRHPECYVCTDCGTNLKQKGHFFVEDQIYCEKHARERVTPPEGYEVVTVFPK
B3: Dynein light chain 2, cytoplasmic (Homo sapiens), Q96FJ2 (parent)
chain: MSDRKAVIKNADMSEDMQQDAVDCATQAMEKYNIEKDIAAYIKKEFDKKYNPTWHCIVGRNFGSYVTHETKHFIYFYLGQVAILLFKSG
partner: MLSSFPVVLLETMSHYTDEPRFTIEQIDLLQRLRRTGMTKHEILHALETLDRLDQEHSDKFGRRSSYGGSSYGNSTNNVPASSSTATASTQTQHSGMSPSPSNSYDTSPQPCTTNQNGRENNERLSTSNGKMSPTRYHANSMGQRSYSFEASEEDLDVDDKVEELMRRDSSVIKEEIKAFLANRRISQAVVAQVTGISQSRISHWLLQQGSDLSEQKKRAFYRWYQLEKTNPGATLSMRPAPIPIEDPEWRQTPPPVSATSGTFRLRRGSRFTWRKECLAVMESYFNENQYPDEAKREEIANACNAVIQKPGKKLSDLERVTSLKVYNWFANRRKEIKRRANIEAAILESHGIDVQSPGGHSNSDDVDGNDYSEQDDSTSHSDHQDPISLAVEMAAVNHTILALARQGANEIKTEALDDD
B4: Splicing factor 45 (Homo sapiens), Q96I25 (parent)
chain: MSLYDDLGVETSDSKTEGWSKNFKLLQSQLQVKKAALTQAKSQRTKQSTVLAPVIDLKRGGSSDDRQIVDTPPHVAAGLKDPVPSGFSAGEVLIPLADEYDPMFPNDYEKVVKRQREERQRQRELERQKEIEEREKRRKDRHEASGFARRPDPDSDEDEDYERERRKRSMGGAAIAPPTSLVEKDKELPRDFPYEEDSRPRSQSSKAAIPPPVYEEQDRPRSPTGPSNSFLANMGGTVAHKIMQKYGFREGQGLGKHEQGLSTALSVEKTSKRGGKIIVGDATEKDASKKSDSNPLTEILKCPTKVVLLRNMVGAGEVDEDLEVETKEECEKYGKVGKCVIFEIPGAPDDEAVRIFLEFERVESAIKAVVDLNGRYFGGRVVKACFYNLDKFRVLDLAEQV
partner: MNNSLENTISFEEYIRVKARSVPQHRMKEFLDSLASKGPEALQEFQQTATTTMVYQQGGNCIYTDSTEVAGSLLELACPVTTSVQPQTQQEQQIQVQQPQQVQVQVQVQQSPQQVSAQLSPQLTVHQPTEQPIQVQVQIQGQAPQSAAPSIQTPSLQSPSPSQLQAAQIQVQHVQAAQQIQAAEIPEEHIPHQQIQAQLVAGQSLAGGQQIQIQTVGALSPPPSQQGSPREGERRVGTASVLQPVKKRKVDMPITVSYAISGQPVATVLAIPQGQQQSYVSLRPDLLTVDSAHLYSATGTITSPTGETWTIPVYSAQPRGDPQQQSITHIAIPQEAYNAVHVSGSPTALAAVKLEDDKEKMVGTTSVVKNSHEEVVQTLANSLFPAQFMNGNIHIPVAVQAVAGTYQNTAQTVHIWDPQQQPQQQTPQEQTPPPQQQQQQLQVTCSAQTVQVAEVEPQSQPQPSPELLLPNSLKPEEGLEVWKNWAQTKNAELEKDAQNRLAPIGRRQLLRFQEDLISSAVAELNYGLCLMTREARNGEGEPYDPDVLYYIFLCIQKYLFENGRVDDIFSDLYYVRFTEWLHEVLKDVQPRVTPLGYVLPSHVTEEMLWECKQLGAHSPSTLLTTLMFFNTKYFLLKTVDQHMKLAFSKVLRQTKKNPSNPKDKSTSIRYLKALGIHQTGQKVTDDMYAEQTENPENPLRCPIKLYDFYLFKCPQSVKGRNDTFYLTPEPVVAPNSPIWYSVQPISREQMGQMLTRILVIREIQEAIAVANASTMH
B5: DCC-interacting protein 13-beta (Homo sapiens), Q8NEU8 (parent)
chain: MPAVDKLLLEEALQDSPQTRSLLSVFEEDAGTLTDYTNQLLQAMQRVYGAQNEMCLATQQLSKQLLAYEKQNFALGKGDEEVISTLHYFSKVVDELNLLHTELAKQLADTMVLPIIQFREKDLTEVSTLKDLFGLASNEHDLSMAKYSRLPKKKENEKVKTEVGKEVAAARRKQHLSSLQYYCALNALQYRKQMAMMEPMIGFAHGQINFFKKGAEMFSKRMDSFLSSVADMVQSIQVELEAEAEKMRVSQQELLSVDESVYTPDSDVAAPQINRNLIQKAGYLNLRNKTGLVTTTWERLYFFTQGGNLMCQPRGAVAGGLIQDLDNCSVMAVDCEDRRYCFQITTPNGKSGIILQAESRKENEEWICAINNISRQIYLTDNPEAVAIKLNQTALQAVTPITSFGKKQESSCPSQNLKNSEMENENDKIVPKATASLPEAEELIAPGTPIQFDIVLPATEFLDQNRGSRRTNPFGETEDESFPEAEDSLLQQMFIVRFLGSMAVKTDSTTEVIYEAMRQVLAARAIHNIFRMTESHLMVTSQSLRLIDPQTQVSRANFELTSVTQFAAHQENKRLVGFVIRVPESTGEESLSTYIFESNSEGEKICYAINLGKEIIEVQKDPEALAQLMLSIPLTNDGKYVLLNDQPDDDDGNPNEHRGAESEA
partner: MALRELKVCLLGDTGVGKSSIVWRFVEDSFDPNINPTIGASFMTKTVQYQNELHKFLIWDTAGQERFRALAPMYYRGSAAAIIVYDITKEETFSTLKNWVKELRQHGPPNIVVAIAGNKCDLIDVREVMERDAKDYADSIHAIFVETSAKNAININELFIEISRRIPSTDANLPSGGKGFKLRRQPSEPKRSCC
B6: Rho guanine nucleotide exchange factor 39 (Homo sapiens), Q8N4T4 (parent)
chain: MELSCPGSRCPVQEQRARWERKRACTARELLETERRYQEQLGLVATYFLGILKAKGTLRPPERQALFGSWELIYGASQELLPYLEGGCWGQGLEGFCRHLELYNQFAANSERSQTTLQEQLKKNKGFRRFVRLQEGRPEFGGLQLQDLLPLPLQRLQQYENLVVALAENTGPNSPDHQQLTRAARLISETAQRVHTIGQKQKNDQHLRRVQALLSGRQAKGLTSGRWFLRQGWLLVVPPHGEPRPRMFFLFTDVLLMAKPRPPLHLLRSGTFACKALYPMAQCHLSRVFGHSGGPCGGLLSLSFPHEKLLLMSTDQEELSRWYHSLTWAISSQKN
partner: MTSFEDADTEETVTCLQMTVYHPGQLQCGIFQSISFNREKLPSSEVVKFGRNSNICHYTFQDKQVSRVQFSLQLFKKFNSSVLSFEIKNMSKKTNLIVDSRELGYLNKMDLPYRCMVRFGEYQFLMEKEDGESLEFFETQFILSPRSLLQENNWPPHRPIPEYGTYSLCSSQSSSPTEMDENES
B7: NAD kinase (Homo sapiens), O95544 (parent)
chain: MEMEQEKMTMNKELSPDAAAYCCSACHGDETWSYNHPIRGRAKSRSLSASPALGSTKEFRRTRSLHGPCPVTTFGPKACVLQNPQTIMHIQDPASQRLTWNKSPKSVLVIKKMRDASLLQPFKELCTHLMEENMIVYVEKKVLEDPAIASDESFGAVKKKFCTFREDYDDISNQIDFIICLGGDGTLLYASSLFQGSVPPVMAFHLGSLGFLTPFSFENFQSQVTQVIEGNAAVVLRSRLKVRVVKELRGKKTAVHNGLGENGSQAAGLDMDVGKQAMQYQVLNEVVIDRGPSSYLSNVDVYLDGHLITTVQGDGVIVSTPTGSTAYAAAAGASMIHPNVPAIMITPICPHSLSFRPIVVPAGVELKIMLSPEARNTAWVSFDGRKRQEIRHGDSISITTSCYPLPSICVRDPVSDWFESLAQCLHWNVRKKQAHFEEEEEEEEEG
partner: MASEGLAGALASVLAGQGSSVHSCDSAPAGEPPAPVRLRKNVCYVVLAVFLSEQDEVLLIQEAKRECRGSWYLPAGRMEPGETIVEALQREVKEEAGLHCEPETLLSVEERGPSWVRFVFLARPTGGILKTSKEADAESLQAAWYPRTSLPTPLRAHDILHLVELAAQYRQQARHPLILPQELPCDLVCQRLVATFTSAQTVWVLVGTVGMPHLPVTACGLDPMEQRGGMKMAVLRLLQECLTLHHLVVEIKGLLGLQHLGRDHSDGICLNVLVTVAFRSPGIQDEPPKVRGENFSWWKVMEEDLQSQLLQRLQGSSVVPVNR
B8: Paraneoplastic antigen-like protein 5 (Homo sapiens), Q96PV4 (parent)
chain: MALTLLEDWCKGMDMDPRKALLIVGIPMECSEVEIQDTVKAGLQPLCAYRVLGRMFRREDNAKAVFIELADTVNYTTLPSHIPGKGGSWEVVVKPRNPDDEFLSRLNYFLKDEGRSMTDVARALGCCSLPAESLDAEVMPQVRSPPLEPPKESMWYRKLKVFSGTASPSPGEETFEDWLEQVTEIMPIWQVSEVEKRRRLLESLRGPALSIMRVLQANNDSITVEQCLDALKQIFGDKEDFRASQFRFLQTSPKIGEKVSTFLLRLEPLLQKAVHKSPLSVRSTDMIRLKHLLARVAMTPALRGKLELLDQRGCPPNFLELMKLIRDEEEWENTEAVMKNKEKPSGRGRGASGRQARAEASVSAPQATVQARSFSDSSPQTIQGGLPPLVKRRRLLGSESTRGEDHGQATYPKAENQTPGREGPQAAGEELGNEAGAGAMSHPKPWET
partner: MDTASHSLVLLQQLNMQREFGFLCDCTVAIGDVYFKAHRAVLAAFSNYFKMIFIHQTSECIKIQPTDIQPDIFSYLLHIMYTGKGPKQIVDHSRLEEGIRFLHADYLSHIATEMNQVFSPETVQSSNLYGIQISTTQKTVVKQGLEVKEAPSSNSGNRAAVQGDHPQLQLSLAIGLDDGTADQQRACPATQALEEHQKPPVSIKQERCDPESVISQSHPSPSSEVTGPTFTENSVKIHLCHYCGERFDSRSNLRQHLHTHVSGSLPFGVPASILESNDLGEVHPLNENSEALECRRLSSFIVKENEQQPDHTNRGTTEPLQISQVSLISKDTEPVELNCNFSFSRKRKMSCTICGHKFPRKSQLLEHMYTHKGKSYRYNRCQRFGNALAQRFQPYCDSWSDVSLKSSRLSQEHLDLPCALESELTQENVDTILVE

Variants of: B1
Conditions: with creb3_human CREB3, O43889

Question: P356L was tested. Which “effect of a mutation on the interaction” value did it give?
Answer: with no effect

Variants of: B2
Conditions: with gfap_human GFAP

Question: How did the “effect of a mutation on the interaction” value turn out when N175S was run?
Answer: with no effect

Variants of: B3
Conditions: with hmbx1_human HMBOX1, Q6NT76

Question: Which “effect of a mutation on the interaction” value does the source give for E30D here?
Answer: with no effect

Variants of: B4
Conditions: with qric1_human QRICH1, Q2TAL8

Question: How did the “effect of a mutation on the interaction” value turn out when T224I was run?
Answer: with no effect

Variants of: B5
Conditions: with rb22a_human RAB22A

Question: How did the “effect of a mutation on the interaction” value turn out when K70R was run?
Answer: with no effect

Variants of: B6
Conditions: with tifa_human TIFA

Question: With D204N as the variant, how does the “effect of a mutation on the interaction” value read?
Answer: with no effect

Question: For R230C, which “effect of a mutation on the interaction” value is on record?
Answer: with no effect

Variants of: B7
Conditions: with nud18_human NUDT18, Q6ZVK8

Question: With R249W as the variant, how does the “effect of a mutation on the interaction” value read?
Answer: with no effect

Variants of: B8
Conditions: with zbt25_human ZBTB25, P24278

Question: V274M was tested. Which “effect of a mutation on the interaction” value did it give?
Answer: with no effect

Question: Which “effect of a mutation on the interaction” value does the source give for R312Q here?
Answer: with no effect

Question: For T261A, which “effect of a mutation on the interaction” value is on record?
Answer: with no effect

Question: Which “effect of a mutation on the interaction” value does the source give for L21Q here?
Answer: disrupting interaction strength
